In PMC5722895, “The dynamic dimer structure of the chaperone Trigger Factor” (Nature Communications, 2017) one finds Kd data, which are given here for eleven proteins.

Sequences and labels used below:
B1: TF(3A) with mutation set mutC (M140E) (natural protein, E. coli, UniProt P0A850 1-432, looked up)
chain: MQVSVETTQGLGRRVTITIAADSIETAVKSELVNVAKKVRIDGAAAGKVPMNIVAQRYGASVRQDVLGDLMSRNFIDAIIKEKINPAGAPTYVPGEYKLGEDFTYSVEFEVYPEVELQGLEAIEVEKPIVEVTDADVDGELDTLRKQQATWKEKDGAVEAEDRVTIDFTGSVDGEEFEGGKASDFVLAMGQGRMIPGFEDGIKGHKAGEEFTIDVTFPEEYHAENLKGKAAKFAINLKKVEERELPELTAEFIKRFGVEDGSVEGLRAEVRKNMERELKSAIRNRVKSQAIEGLVKANDIDVPAALIDSEIDVLRRQAAQRFGGNEKQALELPRELFEEQAKRRVVVGLLLGEVIRTNELKADEERVKGLIEEMASAYEDPKEVIEFYSKNKELMDNMRNVALEEQAVEAVLAKAKVTEKETTFNELMNQQA
notes: Trigger Factor, E. coli, residues 1-432, TF(3A) background; not shown: His6, N-terminal, cleaved
B2: TF(3A) with mutation set mutB (M374A, Y378A, V384A, F387A) (natural protein, E. coli, UniProt P0A850 1-432, looked up)
chain: MQVSVETTQGLGRRVTITIAADSIETAVKSELVNVAKKVRIDGAAAGKVPMNIVAQRYGASVRQDVLGDLMSRNFIDAIIKEKINPAGAPTYVPGEYKLGEDFTYSVEFEVYPEVELQGLEAIEVEKPIVEVTDADVDGMLDTLRKQQATWKEKDGAVEAEDRVTIDFTGSVDGEEFEGGKASDFVLAMGQGRMIPGFEDGIKGHKAGEEFTIDVTFPEEYHAENLKGKAAKFAINLKKVEERELPELTAEFIKRFGVEDGSVEGLRAEVRKNMERELKSAIRNRVKSQAIEGLVKANDIDVPAALIDSEIDVLRRQAAQRFGGNEKQALELPRELFEEQAKRRVVVGLLLGEVIRTNELKADEERVKGLIEEAASAAEDPKEAIEAYSKNKELMDNMRNVALEEQAVEAVLAKAKVTEKETTFNELMNQQA
notes: as for B1
B3: TF(3A) with mutation set mutD (R316A, R321A) (natural protein, E. coli, UniProt P0A850 1-432, looked up)
chain: MQVSVETTQGLGRRVTITIAADSIETAVKSELVNVAKKVRIDGAAAGKVPMNIVAQRYGASVRQDVLGDLMSRNFIDAIIKEKINPAGAPTYVPGEYKLGEDFTYSVEFEVYPEVELQGLEAIEVEKPIVEVTDADVDGMLDTLRKQQATWKEKDGAVEAEDRVTIDFTGSVDGEEFEGGKASDFVLAMGQGRMIPGFEDGIKGHKAGEEFTIDVTFPEEYHAENLKGKAAKFAINLKKVEERELPELTAEFIKRFGVEDGSVEGLRAEVRKNMERELKSAIRNRVKSQAIEGLVKANDIDVPAALIDSEIDVLRAQAAQAFGGNEKQALELPRELFEEQAKRRVVVGLLLGEVIRTNELKADEERVKGLIEEMASAYEDPKEVIEFYSKNKELMDNMRNVALEEQAVEAVLAKAKVTEKETTFNELMNQQA
notes: as for B1
B4: TF(3A) with mutation sets mutB + mutD (M374A, Y378A, V384A, F387A, R316A, R321A) (natural protein, E. coli, UniProt P0A850 1-432, looked up)
chain: MQVSVETTQGLGRRVTITIAADSIETAVKSELVNVAKKVRIDGAAAGKVPMNIVAQRYGASVRQDVLGDLMSRNFIDAIIKEKINPAGAPTYVPGEYKLGEDFTYSVEFEVYPEVELQGLEAIEVEKPIVEVTDADVDGMLDTLRKQQATWKEKDGAVEAEDRVTIDFTGSVDGEEFEGGKASDFVLAMGQGRMIPGFEDGIKGHKAGEEFTIDVTFPEEYHAENLKGKAAKFAINLKKVEERELPELTAEFIKRFGVEDGSVEGLRAEVRKNMERELKSAIRNRVKSQAIEGLVKANDIDVPAALIDSEIDVLRAQAAQAFGGNEKQALELPRELFEEQAKRRVVVGLLLGEVIRTNELKADEERVKGLIEEAASAAEDPKEAIEAYSKNKELMDNMRNVALEEQAVEAVLAKAKVTEKETTFNELMNQQA
notes: as for B1
B5: TF(3A) with mutation sets mutD + mutC (R316A, R321A, M140E) (natural protein, E. coli, UniProt P0A850 1-432, looked up)
chain: MQVSVETTQGLGRRVTITIAADSIETAVKSELVNVAKKVRIDGAAAGKVPMNIVAQRYGASVRQDVLGDLMSRNFIDAIIKEKINPAGAPTYVPGEYKLGEDFTYSVEFEVYPEVELQGLEAIEVEKPIVEVTDADVDGELDTLRKQQATWKEKDGAVEAEDRVTIDFTGSVDGEEFEGGKASDFVLAMGQGRMIPGFEDGIKGHKAGEEFTIDVTFPEEYHAENLKGKAAKFAINLKKVEERELPELTAEFIKRFGVEDGSVEGLRAEVRKNMERELKSAIRNRVKSQAIEGLVKANDIDVPAALIDSEIDVLRAQAAQAFGGNEKQALELPRELFEEQAKRRVVVGLLLGEVIRTNELKADEERVKGLIEEMASAYEDPKEVIEFYSKNKELMDNMRNVALEEQAVEAVLAKAKVTEKETTFNELMNQQA
notes: Trigger Factor, E. coli, residues 1-432, TF(3A) background; also called mutC + mutD; not shown: His6, N-terminal, cleaved
B6: TF(3A) variant TF(F44A, R45A, K46A) (natural protein, E. coli, UniProt P0A850 1-432, looked up)
chain: MQVSVETTQGLGRRVTITIAADSIETAVKSELVNVAKKVRIDGAAAGKVPMNIVAQRYGASVRQDVLGDLMSRNFIDAIIKEKINPAGAPTYVPGEYKLGEDFTYSVEFEVYPEVELQGLEAIEVEKPIVEVTDADVDGMLDTLRKQQATWKEKDGAVEAEDRVTIDFTGSVDGEEFEGGKASDFVLAMGQGRMIPGFEDGIKGHKAGEEFTIDVTFPEEYHAENLKGKAAKFAINLKKVEERELPELTAEFIKRFGVEDGSVEGLRAEVRKNMERELKSAIRNRVKSQAIEGLVKANDIDVPAALIDSEIDVLRRQAAQRFGGNEKQALELPRELFEEQAKRRVVVGLLLGEVIRTNELKADEERVKGLIEEMASAYEDPKEVIEFYSKNKELMDNMRNVALEEQAVEAVLAKAKVTEKETTFNELMNQQA
notes: not shown: His6, N-terminal, cleaved
B7: TF(3A) with mutation sets mutB + mutC (M374A, Y378A, V384A, F387A, M140E) (natural protein, E. coli, UniProt P0A850 1-432, looked up)
chain: MQVSVETTQGLGRRVTITIAADSIETAVKSELVNVAKKVRIDGAAAGKVPMNIVAQRYGASVRQDVLGDLMSRNFIDAIIKEKINPAGAPTYVPGEYKLGEDFTYSVEFEVYPEVELQGLEAIEVEKPIVEVTDADVDGELDTLRKQQATWKEKDGAVEAEDRVTIDFTGSVDGEEFEGGKASDFVLAMGQGRMIPGFEDGIKGHKAGEEFTIDVTFPEEYHAENLKGKAAKFAINLKKVEERELPELTAEFIKRFGVEDGSVEGLRAEVRKNMERELKSAIRNRVKSQAIEGLVKANDIDVPAALIDSEIDVLRRQAAQRFGGNEKQALELPRELFEEQAKRRVVVGLLLGEVIRTNELKADEERVKGLIEEAASAAEDPKEAIEAYSKNKELMDNMRNVALEEQAVEAVLAKAKVTEKETTFNELMNQQA
notes: Trigger Factor, E. coli, residues 1-432, TF(3A) background; also called mutC + mutB; not shown: His6, N-terminal, cleaved
B8: SBD (114–148/247–432) (domain or fragment, E. coli, UniProt P0A850 114-148, looked up)
chain: EVELQGLEAIEVEKPIVEVTDADVDGMLDTLRKQQELTAEFIKRFGVEDGSVEGLRAEVRKNMERELKSAIRNRVKSQAIEGLVKANDIDVPAALIDSEIDVLRRQAAQRFGGNEKQALELPRELFEEQAKRRVVVGLLLGEVIRTNELKADEERVKGLIEEMASAYEDPKEVIEFYSKNKELMDNMRNVALEEQAVEAVLAKAKVTEKETTFNELMNQQA
notes: Trigger Factor, E. coli, residues 114-148 (linker part of the SBD); Trigger Factor, E. coli, residues 247-432 (C-terminal part of the SBD); The PPD (149-246) is left out; not shown: His tag, N-terminal, cleaved
B9: RBD (residues 1–117) (domain or fragment, E. coli, UniProt P0A850 1-117, looked up)
chain: MQVSVETTQGLGRRVTITIAADSIETAVKSELVNVAKKVRIDGFRKGKVPMNIVAQRYGASVRQDVLGDLMSRNFIDAIIKEKINPAGAPTYVPGEYKLGEDFTYSVEFEVYPEVEL
notes: Trigger Factor, E. coli, residues 1-117 (stop codon at position 118); not shown: His tag, N-terminal, cleaved
B10: SBD–PPD (114–432) (domain or fragment, E. coli, UniProt P0A850 114-432, looked up)
chain: EVELQGLEAIEVEKPIVEVTDADVDGMLDTLRKQQATWKEKDGAVEAEDRVTIDFTGSVDGEEFEGGKASDFVLAMGQGRMIPGFEDGIKGHKAGEEFTIDVTFPEEYHAENLKGKAAKFAINLKKVEERELPELTAEFIKRFGVEDGSVEGLRAEVRKNMERELKSAIRNRVKSQAIEGLVKANDIDVPAALIDSEIDVLRRQAAQRFGGNEKQALELPRELFEEQAKRRVVVGLLLGEVIRTNELKADEERVKGLIEEMASAYEDPKEVIEFYSKNKELMDNMRNVALEEQAVEAVLAKAKVTEKETTFNELMNQQA
notes: Trigger Factor, E. coli, residues 114-432; also called bi-domain construct SBD–PPD; not shown: His tag, N-terminal, cleaved
B11: PPD (149–249) (domain or fragment, E. coli, UniProt P0A850 149-249, looked up)
chain: ATWKEKDGAVEAEDRVTIDFTGSVDGEEFEGGKASDFVLAMGQGRMIPGFEDGIKGHKAGEEFTIDVTFPEEYHAENLKGKAAKFAINLKKVEERELPELT
notes: Trigger Factor, E. coli, residues 149-249; also called peptidyl-prolyl isomerase domain; not shown: His tag, N-terminal, cleaved

Bounds are passed on as bounds.

One data set concerns the molecule itself. Kind of data set: SEC-MALS; concentration series of full-length TF and full-length mutants alone, 26 °C, sample buffer (20 mM K-phosphate pH 6.5, 100 mM KCl, 0.5 mM EDTA); fit to a fast monomer-dimer equilibrium; dimer to monomers.
Take B1: the Kd was 28 µM. Protein B2 registered a dissociation constant (Kd) above 1000 µM. The same measure, in the same setting: the figure for B3 is 22 µM; for B4 it is above 1000 µM. Protein B5 showed a dissociation constant Kd of 260 µM.

On to B6, for which the Kd came out at 1.1 µM. Still for that read-out and setting: the figure for B7 is above 1000 µM.

A further data set concerns the molecule itself. Kind of data set: SEC-MALS; sample buffer (20 mM K-phosphate pH 6.5, 100 mM KCl, 0.5 mM EDTA); 6 °C for the individual domains; concentration series fitted to a fast monomer–dimer equilibrium; dimer to monomers.
B8 gave a dissociation constant (Kd) above 1000 µM. The same measure, in the same setting: in the case of B9 it was at least 1500 µM; in that of B10, above 1000 µM; in that of B11, above 5000 µM.
